# Experimental data published in article PMC5404360, “Identification of a Novel (-)-5-Epieremophilene Synthase from Salvia miltiorrhiza via Transcriptome Mining” (Frontiers in Plant Science, 2017).
# Substitutions are numbered along the chain they refer to.
# B1: SmSTPS1 (Salvia miltiorrhiza) (protein)
# chain: MATTQAQIQRPIANFSPSLWGDQFIKNDPGAKAAEKHCKAVEELKKEVMNMITAAGSNLVEAMNLIDTLERLGISYHFEKEIDQKLKHFFNLNKDYSDESYDLYTVSLHFRLFRQHGHRISSDIFGRWIDESGKFKEGLKTDGKGLLSLYEASYLRTRGETILDDALEFATATLNSIAPHLESPLSKQVVHALIQPLHYGNPRIEAHNFISIYEENQDKNEFLLRFAKLDYNLLQMLHKEELNEVSRWWKELDLVSKLPYARDRVVECFFWAMGVYHEPQYSRARIMLTKTITMTSIIDDTYDAYGVIEELDIFTEAIERWNMEEMKKLPEYIQPFYKALLELYEQFEEELAEEGRSYAAHYAIESLKELVRSYHVEAKWFIQGYLPPFEEYLKNALITCTYCYHTTTSLLGVESAVEEDFEWLANKPKMLVAGLLICRVIDDIATYEVEKERGQSATGIESYMRDNNATIEEAVAKFFEIATDAWKDINEECLMPSPYSRDVLMRILNLERIIDVTYKGNEDGYTQPEKVLKPHIIALFVDPIKM
# notes: full-length ORF, 546 aa, in pET-32a (N-terminal thioredoxin/His tag fusion, kept), E. coli Rosetta (DE3), Ni-NTA purified
# B2: SmSTPS2 (Salvia miltiorrhiza) (protein)
# chain: MATTQVEIQRPIANFSPSLWGDQFIKNDSGAKAAEKHCKAVEELKKEVMNMITAGGSNLVEAMNLIDTLERLGISYHFEKEIDQKLNHFFNLNTDYSDEFYDLYTVSLHFRLFRQHGHRISSDIFGRWIDESGKFKEGLKTDGKGLLSLYEASYLRTRGETILDDALEFATATLNSIAPHLESPLSKQVVHALIQPLHYGNPRIEAHNFISIYEENQDKNEFLLKFAKLDYNLLQMLHKEELHEVSRWWKELDLVSKLPYARDRVVECFFWAMGVYHEPQYSRARIMLTKTITMTSIIDDTYDAYGVIEELDIFTEAIERWNIEEMDRLPEYVKPFYKALLELYEQFEEELAEEGRSYAAHYAIESLKELVRSYHVEAKWFIQGYLPPFEEYLKNALITCTYCYHTTTSLLGVESAVEEDFQWLAKKPKMLVAGLLICRVIDDIATYEVEKERGQSATGIESYMRDNNATIEEAVAKFFEIATDAWKDINEECLMPSPYSRDVLMRILNLERIIDVTYKGNEDGYTQPEKVLKPHIIALFVDPIKM
# notes: as for B1
# B3: SmSTPS3 (Salvia miltiorrhiza) (protein)
# chain: B2 chain with G55A, G56E, N91S, F100S
# notes: as for B1
# Columns and labels:
# Test in all cases: GC-MS product quantification, Michaelis-Menten fit
# Type in all cases: biochemical, Salvia miltiorrhiza
# Settings in all cases: Mg2+ (5 mM MgCl2), 25 mM HEPES pH 7.0, 5 mM DTT, 30°C, 5 min, FPP 2.3-184.6 μM
# [1] = substrate: CC(C)=CCC/C(C)=C/CC/C(C)=C/CO[P@@](=O)(O)OP(=O)(O)O
# Excerpt: GC-MS product quantification, Michaelis-Menten fit on […]1
# [2] = substrate: CC(C)=CCC/C(C)=C/CC/C(C)=C/CO[P@@](=O)(O)OP(=O)(O)O; remark: listed apart in the source
# Excerpt: GC-MS product quantification, Michaelis-Menten fit on […]2
# [3] = substrate: CC(C)=CCC/C(C)=C/CC/C(C)=C/CO[P@@](=O)(O)OP(=O)(O)O; remark: listed apart in the source
# Excerpt: GC-MS product quantification, Michaelis-Menten fit on […]3
protein,measurement,setting,value
B1,Km,[1],25.35 ± 1.88 µM
same,kcat,[1],2.09 ± 0.05 s⁻¹
same,kcat/Km,[1],82700 ± 40600 M⁻¹ s⁻¹
B2,Km,[2],24.20 ± 0.84 µM
same,kcat,[2],2.07 ± 0.13 s⁻¹
same,kcat/Km,[2],85600 ± 38200 M⁻¹ s⁻¹
B3,Km,[3],10.44 ± 1.07 µM
same,kcat,[3],1.53 ± 0.02 s⁻¹
same,kcat/Km,[3],148000 ± 13200 M⁻¹ s⁻¹
